From article PMC8464063, “The bacterial iron sensor IdeR recognizes its DNA targets by indirect readout”

Legend:
[1] = target: Saccharopolyspora erythraea iron-dependent regulator IdeR, wild type (Saccharopolyspora erythraea); test: crystal structure; Co2+-activated IdeR WT without DNA; 12 mg/ml protein with 1 mM CoCl2 and 0.3 mg/ml trypsin before crystallisation; 25% PEG 1500, 20°C; space group P1, one IdeR dimer in the asymmetric unit
[2] = target: Saccharopolyspora erythraea iron-dependent regulator IdeR, wild type (Saccharopolyspora erythraea); test: crystal structure; IdeR (WT, Q43A or P39G) with 1 mM CoCl2 or Fe(NH4)2(SO4)2 and 150 uM 30-bp double-stranded DNA (consensus or C10S1); space group C2, two IdeR dimers and one DNA duplex in the asymmetric unit
[3] = target: Saccharopolyspora erythraea IdeR P39G variant (Saccharopolyspora erythraea); test: as above
[4] = target: Saccharopolyspora erythraea IdeR Q43A variant (Saccharopolyspora erythraea); test: as above
[5] = target: T1, IdeR WT (Saccharopolyspora erythraea DSM 40517, UniProt A0ABF7PL34 1-231); test: EMSA; 30 uM Co2+; up to 22.5 uM dimer; EMSA: 15 mM Tris-acetate pH 7.3, 4 mM K-acetate, 10% glycerol, 17 ng/ul poly(dI-dC), 30 nM DNA, 30 uM Co2+, IdeR 15 nM-2.25 uM dimer, 20 min room temperature; 4% native gel at 4 C; settings: protein: recombinant, tags: N-terminal His6 removed by TEV, Gly-His remains before Met1, chain copies: 4, blunt
[6] = target: T1, IdeR WT; test: EMSA; 30 uM Co2+; EMSA: 15 mM Tris-acetate pH 7.3, 4 mM K-acetate, 10% glycerol, 17 ng/ul poly(dI-dC), 30 nM DNA, 30 uM Co2+, IdeR 15 nM-2.25 uM dimer, 20 min room temperature; 4% native gel at 4 C; settings: protein: recombinant, tags: N-terminal His6 removed by TEV, Gly-His remains before Met1, chain copies: 4, blunt
[7] = target: T1, IdeR WT; test: EMSA; 30 uM Co2+; one dimer bound; EMSA: 15 mM Tris-acetate pH 7.3, 4 mM K-acetate, 10% glycerol, 17 ng/ul poly(dI-dC), 30 nM DNA, 30 uM Co2+, IdeR 15 nM-2.25 uM dimer, 20 min room temperature; 4% native gel at 4 C; settings: protein: recombinant; tags: N-terminal His6 removed by TEV; Gly-His remains before Met1; chain copies: 4; label: 5' Cy5 on strand 1; blunt
[8] = target: T2, IdeR P39G (Saccharopolyspora erythraea DSM 40517, UniProt A0ABF7PL34 1-231, P39G); test: X-ray crystallography; Co2+; two dimers per duplex; EMSA: 15 mM Tris-acetate pH 7.3, 4 mM K-acetate, 10% glycerol, 17 ng/ul poly(dI-dC), 30 nM DNA, 30 uM Co2+, IdeR 15 nM-2.25 uM dimer, 20 min room temperature; 4% native gel at 4 C; settings: protein: recombinant; tags: N-terminal His6 removed by TEV; Gly-His remains before Met1; chain copies: 4; blunt
[9] = target: T1, IdeR WT; test: X-ray crystallography; Fe2+; two dimers per duplex; EMSA: 15 mM Tris-acetate pH 7.3, 4 mM K-acetate, 10% glycerol, 17 ng/ul poly(dI-dC), 30 nM DNA, 30 uM Co2+, IdeR 15 nM-2.25 uM dimer, 20 min room temperature; 4% native gel at 4 C; settings: protein: recombinant; tags: N-terminal His6 removed by TEV; Gly-His remains before Met1; chain copies: 4; blunt
[10] = target: T2, IdeR P39G; test: EMSA; 30 uM Co2+; EMSA: 15 mM Tris-acetate pH 7.3, 4 mM K-acetate, 10% glycerol, 17 ng/ul poly(dI-dC), 30 nM DNA, 30 uM Co2+, IdeR 15 nM-2.25 uM dimer, 20 min room temperature; 4% native gel at 4 C; settings: protein: recombinant; tags: N-terminal His6 removed by TEV; Gly-His remains before Met1; chain copies: 4; label: 5' Cy5 or 5' FAM on strand 1; blunt
[11] = target: IdeR Q43A (Saccharopolyspora erythraea DSM 40517, UniProt A0ABF7PL34 1-231, Q43A); test: as above; settings: protein: recombinant; tags: N-terminal His6 removed by TEV; Gly-His remains before Met1; chain copies: 4; label: 5' Cy5 or 5' FAM on strand 1; blunt

## Saccharopolyspora erythraea iron-dependent regulator IdeR, wild type (natural protein)
[1]
  stoichiometry N: 2
[2]
  stoichiometry N: 2

## Saccharopolyspora erythraea IdeR P39G variant (natural protein)
[3]
  stoichiometry N: 2

## Saccharopolyspora erythraea IdeR Q43A variant (natural protein)
[4]
  stoichiometry N: 2

B1: Minimal_NCTNN (dsDNA)
DNA 1: CGTACGCAGACGAGACTCGTCTGCGCTACG
DNA 2: CGTAGCGCAGACGAGTCTCGTCTGCGTACG
[5]; label: 5' FAM on strand 1
  binding result: no binding

B2: Consensus_A4A5-S4S5 (dsDNA)
DNA 1: CGTACGCAGGCGAGGCTCGCCTGCGTACG
DNA 2: CGTACGCAGGCGAGCCTCGCCTGCGTACG
[6]; label: 5' Cy5 on strand 1
  Kd: ~128 nM

B3: C10S1 (dsDNA)
DNA 1: CGTACTTTGGTAAAGCTAACCTAAGTCACC
DNA 2: GGTGACTTAGGTTAGCTTTACCAAAGTACG
[6]; label: 5' FAM on strand 1
  Kd: ~116 nM

B4: C10S2 (dsDNA)
DNA 1: GATGCTTAGGTTAGCCTACCCGACGCTGA
DNA 2: TCAGCGTCGGGTAGGCTAACCTAAGCATC
[6]; label: 5' Cy5 on strand 1
  Kd: ~94 nM

B5: Consensus_C1-T1 (dsDNA)
DNA 1: CGTACTTAGATTAGACTAATCTAAGTACG
DNA 2: CGTACTTAGATTAGTCTAATCTAAGTACG
[6]; label: 5' Cy5 on strand 1
  Kd: ~70 nM

B6: Consensus_C1C2-T1T2 (dsDNA)
DNA 1: CGTACTTAAATTAAATTAATTTAAGTACG
DNA 2: CGTACTTAAATTAATTTAATTTAAGTACG
[5]; label: 5' Cy5 on strand 1
  binding result: no binding

B7: Consensus_T3-G3 (dsDNA)
DNA 1: CGTACTTCGGTTCGGCGAACCGAAGTACG
DNA 2: CGTACTTCGGTTCGCCGAACCGAAGTACG
[5]; label: 5' Cy5 on strand 1
  binding result: no binding

B8: C23S1 (dsDNA)
DNA 1: AGTCATAAAGTTAGGTTCGCCTCACTACT
DNA 2: AGTAGTGAGGCGAACCTAACTTTATGACT
[7]
  Kd: ~102 nM

B9: Half site (dsDNA)
DNA 1: CGTACCCGGTTTAGGGCCACCTAAGTACG
DNA 2: CGTACTTAGGTGGCCCTAAACCGGGTACG
[7]
  Kd: ~78 nM

B10: Consensus_C2-T2 (dsDNA)
DNA 1: CGTACTTAAGTTAAGTTAACTTAAGTCACG
DNA 2: CGTGACTTAAGTTAACTTAACTTAAGTACG
[6]; label: 5' FAM on strand 1
  Kd: ~105 nM

B11: Minimal_CNTNN (dsDNA)
DNA 1: CGTACGCACGCGATGCTCGCATCCGTACG
DNA 2: CGTACGGATGCGAGCATCGCGTGCGTACG
[5]; label: 5' Cy5 on strand 1
  binding result: no binding

B12: Cons_long (crystal) (dsDNA)
DNA 1: CGTACTTAGGTTAGGCTAACCTAAGTCACG
DNA 2: CGTGACTTAGGTTAGCCTAACCTAAGTACG
[8]
  binding result: binds
[9]
  binding result: binds

B13: Consensus_Full (dsDNA)
DNA 1: CGTACTTAGGTTAGGCTAACCTAAGTACG
DNA 2: CGTACTTAGGTTAGCCTAACCTAAGTACG
[10]
  Kd: ~264 nM
[6]; label: 5' Cy5 or 5' FAM on strand 1
  Kd: ~45 nM
[11]
  Kd: ~65 nM
